We go through 4 molecules from PMC9701214, “Orthogonal glycolytic pathway enables directed evolution of noncanonical cofactor oxidase” (Nature Communications, 2022).

One data set concerns the target T1, XenA (Pseudomonas putida, UniProt Q9R9V9).
T1 construct: purified recombinant enzyme (plasmid pEK102 carries XenA WT)
In words: specific activity, absorbance at […] nm. The format is biochemical. The conditions noted are these: 0.2 mM reduced cofactor, 5 mM ketoisophorone, 200 mM potassium phosphate pH 7.5, 37 °C.

Substrate in data set [1]: NC(=O)C1=CN([C@@H]2O[C@H](COP(=O)(O)OP(=O)(O)OC[C@H]3O[C@@H](n4cnc5c(N)ncnc54)[C@H](OP(=O)(O)O)[C@@H]3O)[C@@H](O)[C@H]2O)C=CC1
In words: purified protein. The class given is biochemical, Lactiplantibacillus pentosus. The conditions noted are these: 50 mM Tris-HCl pH 7.0, 37 °C, apparent.

Substrate in data set [2]: NC(=O)C1=CN([C@@H]2O[C@H](COP(=O)(O)OP(=O)(O)OC[C@H]3O[C@@H](n4cnc5c(N)ncnc54)[C@H](O)[C@@H]3O)[C@@H](O)[C@H]2O)C=CC1
In words: purified protein. The class given is biochemical, Lactiplantibacillus pentosus. The conditions noted are these: 50 mM Tris-HCl pH 7.0, 37 °C, apparent.

In general, Km refers to the substrate concentration at which the rate is half of its maximum. As usually defined, the kcat is the number of substrate molecules converted per active site and unit of time at saturation. By kcat/Km is commonly meant the second-order rate constant that governs catalysis at low substrate concentration.

T1 sequence (Q9R9V9 entry or part of it): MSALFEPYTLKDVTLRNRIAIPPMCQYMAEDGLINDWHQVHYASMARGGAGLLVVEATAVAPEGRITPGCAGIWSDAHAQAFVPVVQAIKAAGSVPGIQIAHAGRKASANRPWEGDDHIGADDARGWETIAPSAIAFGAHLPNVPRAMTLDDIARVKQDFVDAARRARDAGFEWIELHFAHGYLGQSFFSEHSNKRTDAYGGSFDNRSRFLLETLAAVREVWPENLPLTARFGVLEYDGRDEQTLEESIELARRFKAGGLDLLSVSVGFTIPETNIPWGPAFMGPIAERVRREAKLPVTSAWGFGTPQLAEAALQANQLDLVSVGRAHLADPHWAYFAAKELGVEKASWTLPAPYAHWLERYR

For the molecule `NC(=O)C1=CN([C@@H]2O[C@H](COP(=O)(O)O)[C@@H](O)[C@H]2O)C=CC1` [NMNH], the “specific activity, absorbance at 340 nm” value on XenA is “Specific activities of redox partners toward NMNH”.

B1: Lp Nox (Lactiplantibacillus pentosus; D177W/G178E/I158S/V240L) (protein)
chain: MKVIVIGCTHAGTAAVNQILASNPETDVTIYERNDNVSFLSCGIALYLGGEVADPQGLFYSSPEQLAKLGANVHMQHDVTDVDTENHEITVTDLKTGESKKDYYDKLVVTTGSWPVIPPIDGIDSPNVYLCKNWTHAQSLWEAAKPAKRVIVIGGGYSGTELVEAYQKQGKEVTLIWELPRILNKYLDKGFTDRVEKDFVDHGIKMALNQMVKGFSDDGKEVTVKTDKGSYTADMAILCLGFRPNTSLLKGKVDMNPNGSIKTNDYMQTSDPDIYGAGDSVAVHYNPTKKDAYIPLATNAVRQGTLVGLNIFKPTRKYMGTQSTSGLMLFGKTIVSSGMTLEHAQAEKVPAEAVTFEDNYRPEFMPTTKPVLMQLVYNPETREILGAQFMSEHDVSQSANVISVMIQNHNTIDDLGFVDMFFQPIYDRPFNYLNLLGQAAIAHAAEKVTE
notes: recombinant from E. coli BL21(DE3), pQElac vector (pLS504), purified on His-Spin column (His-tag implied); FAD added at lysis
Take B1: in the data set “purified protein [1]”, the Km is 1.1 ± 0.1 mM, the kcat worked out at 28 ± 1 s⁻¹ and the kcat/Km was found to be 26000 ± 1000 M⁻¹ s⁻¹. Moreover, in the data set “purified protein [2]”, the Km is given as 1.9 ± 0.04 mM, the kcat was 31 ± 1 s⁻¹ and the kcat/Km was determined as 17000 ± 200 M⁻¹ s⁻¹.

B2: Lp Nox (Lactiplantibacillus pentosus) (protein)
chain: MKVIVIGCTHAGTAAVNQILASNPETDVTIYERNDNVSFLSCGIALYLGGEVADPQGLFYSSPEQLAKLGANVHMQHDVTDVDTENHEITVTDLKTGESKKDYYDKLVVTTGSWPVIPPIDGIDSPNVYLCKNWTHAQSLWEAAKPAKRVIVIGGGYIGTELVEAYQKQGKEVTLIDGLPRILNKYLDKGFTDRVEKDFVDHGIKMALNQMVKGFSDDGKEVTVKTDKGSYTADMAILCVGFRPNTSLLKGKVDMNPNGSIKTNDYMQTSDPDIYGAGDSVAVHYNPTKKDAYIPLATNAVRQGTLVGLNIFKPTRKYMGTQSTSGLMLFGKTIVSSGMTLEHAQAEKVPAEAVTFEDNYRPEFMPTTKPVLMQLVYNPETREILGAQFMSEHDVSQSANVISVMIQNHNTIDDLGFVDMFFQPIYDRPFNYLNLLGQAAIAHAAEKVTE
notes: as for B1
As for B2, in the data set “purified protein [1]”, the Km is given as 1.9 ± 0.2 mM, the kcat was 18 ± 2 s⁻¹ and the kcat/Km was determined as 9300 ± 200 M⁻¹ s⁻¹. In addition, in the data set “purified protein [2]”, the Km was determined as 0.025 ± 0.001 mM, the kcat was found to be 21 ± 0.3 s⁻¹ and the kcat/Km is 840000 ± 10000 M⁻¹ s⁻¹.

B3: Lp Nox (Lactiplantibacillus pentosus; D177W/I158S/V240L) (protein)
chain: MKVIVIGCTHAGTAAVNQILASNPETDVTIYERNDNVSFLSCGIALYLGGEVADPQGLFYSSPEQLAKLGANVHMQHDVTDVDTENHEITVTDLKTGESKKDYYDKLVVTTGSWPVIPPIDGIDSPNVYLCKNWTHAQSLWEAAKPAKRVIVIGGGYSGTELVEAYQKQGKEVTLIWGLPRILNKYLDKGFTDRVEKDFVDHGIKMALNQMVKGFSDDGKEVTVKTDKGSYTADMAILCLGFRPNTSLLKGKVDMNPNGSIKTNDYMQTSDPDIYGAGDSVAVHYNPTKKDAYIPLATNAVRQGTLVGLNIFKPTRKYMGTQSTSGLMLFGKTIVSSGMTLEHAQAEKVPAEAVTFEDNYRPEFMPTTKPVLMQLVYNPETREILGAQFMSEHDVSQSANVISVMIQNHNTIDDLGFVDMFFQPIYDRPFNYLNLLGQAAIAHAAEKVTE
notes: as for B1
Take B3: in the data set “purified protein [1]”, the Km was determined as 0.89 ± 0.04 mM, the kcat was 27 ± 2 s⁻¹ and the kcat/Km turned out to be 31000 ± 1000 M⁻¹ s⁻¹. For the same molecule, in “purified protein [2]”, the Km amounted to 1.7 ± 0.2 mM, the kcat is 47 ± 4 s⁻¹ and the kcat/Km amounted to 28000 ± 1000 M⁻¹ s⁻¹.
